Columns and labels:
K63-diUb = K63-diUb (UniProt P0CG48); experiment: ITC; 293 K; 50 mM HEPES pH 7.4, 50 mM NaCl, 0.5 mM TCEP; cell 50–100 μM, syringe usually 10-fold; 20 injections of 2 μl; averages of at least two experiments; which partner was in the syringe not stated
K48-diUb = K48-diUb (UniProt P0CG48); experiment: as above

Kd (K63-diUb): 16.7 µM
dH (K63-diUb): -5.88 kcal/mol
stoichiometry N (K63-diUb): 1.71
Kd (K48-diUb): 47 µM
dH (K48-diUb): -5.87 kcal/mol
stoichiometry N (K48-diUb): 1.29
Substance: N4BP1 (850–893) (from UniProt Q6A037 850-893) (domain or fragment)

— PMC11032371
